Reference: patent publication US9012420B2, “Aptamer for chymase, and use thereof” (Ribomic Inc., priority 2009, dated 2015)
Oligonucleotides are written 5' to 3', each unit as a sugar letter and its base; * is a phosphorothioate linkage, no mark a phosphodiester; rarer units and linkages stand in square brackets, end groups in braces. Plain capitals give the bases only. r = 2'-OH (RNA); f = 2'-fluoro

Assays:
chymase = target: T1, chymase (Homo sapiens, UniProt P23946); assay: Surface plasmon resonance (Biacore T100), aptamer immobilized on SA chip, chymase injected as analyte; format: binding; design: key: ++: a sequence that binds to chymase significantly more strongly than the negative control 40N; +: a sequence that binds to chymase equivalently compared with the negative control 40N; conditions: Table 1; about 1000 RU nucleic acid immobilized, chymase 0.2 μM analyte, running buffer solution A; compared with 40N
T1 sequence (P23946 22-247): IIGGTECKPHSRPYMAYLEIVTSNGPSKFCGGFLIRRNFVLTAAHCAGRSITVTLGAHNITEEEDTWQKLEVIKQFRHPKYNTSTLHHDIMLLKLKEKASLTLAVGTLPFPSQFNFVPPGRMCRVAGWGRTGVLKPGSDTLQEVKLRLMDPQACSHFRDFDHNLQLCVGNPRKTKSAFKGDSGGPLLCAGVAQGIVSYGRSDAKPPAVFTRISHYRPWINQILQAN
Experimental: Binding strength is measured using Biacore T100 (manufactured by GE Healthcare). In a method of measurement, the aptamer is first immobilized onto a sensor chip, the amount immobilized being about 1000 RU. 20 μL of a chymase solution for analyte, prepared at 0.2 μM, is injected, and the binding of chymase to the aptamer is detected. An RNA comprising a random nucleotide sequence of 30 or 40 nucleotides is used as a negative control.
The binding activities against chymase of the nucleic acids shown by SEQ ID NO: 4-20 and 22-34 were determined by the surface plasmon resonance method using Biacore T100 (manufactured by GE Healthcare). The sensor chip used was the SA chip, which had streptavidin immobilized thereon. Bound thereto was about 1500 RU of a 16-nucleotide Poly dT with biotin bound to the 5′ end thereof. […] 20 μL of chymase for analyte, prepared at 0.2 μM, was injected. Solution A was used as a running buffer.
The binding activities against chymase of the nucleic acids shown by SEQ ID NO: 38-48 were evaluated by the surface plasmon resonance method. In the evaluations for SEQ ID NO: 38-48, measurements were taken in the same manner as Example 1. Solution C was used as a running buffer.

[1] = target: T2, chymase (recombinant, manufactured by SIGMA) (Homo sapiens, UniProt P23946); assay: Chymase inhibitory activity using synthetic substrate Suc-Ala-Ala-Pro-Phe-MCA; format: biochemical; conditions: Table 3; substrate 100 μM, solution C, 37° C.; mean value for 2 to 3 measurements
T2 construct: purchased SIGMA; host or cells: yeast
T2 sequence (P23946 22-247): T1 sequence (P23946 22-247)
Experimental: A first method employs a synthetic substrate. A useful chymase substrate is Suc-Ala-Ala-Pro-Phe-MCA (4-methylcoumaryl-7-amide group) (manufactured by Peptide Institute, Inc.), which contains the 4-amino acid peptide “Ala-Ala-Pro-Phe”, a standard substrate for chymotrypsin-like proteases.
The assay is performed using a 96-well plate (F16 Black Maxisorp Fluoronunc, manufactured by Nunc), with a reaction mixture volume of 100 μL, in a buffer solution (solution C; see Example 2 below). First, each nucleic acid is prepared in solution C to obtain 50 μL solutions. After 10 μL of the 1 mM substrate prepared in solution C is added, the plate is set to the microplate reader SpectraMax190 (manufactured by Molecular Devices Corporation), and incubated at 37° C. for 5 minutes. Separately, 0.05 μg of chymase (recombinant, manufactured by SIGMA) is diluted in solution C, and 40 μL of this dilution is incubated at 37° C. for 5 minutes. The chymase solution is added to the mixture of the nucleic acid and substrate to initiate an enzyme reaction. The plate containing the reaction mixture is set to the microplate reader SpectraMax190 (manufactured by Molecular Devices Corporation), and examined for time-dependent changes in the fluorescence intensity at 37° C. for 5 minutes (excitation wavelength 380 nm, detection wavelength 460 nm). A linear approximation of the increase in the fluorescence of the AMC (7-amino-4-methylcoumarine) released from the substrate by chymase activity is generated, and its slope is taken as the initial reaction velocity. For control, samples are treated and analyzed in the same manner in two cases: use of a nucleic acid pool containing a random sequence of 30 or 40 nucleotides (negative control), and use of chymostatin, a known chymotrypsin-like serine protease inhibitor (positive control). Taking the initial reaction velocity without the nucleic acid and inhibitor as a 100% enzyme activity, the inhibitory rate for each test substance is calculated, and the inhibitor concentration required to cause a 50% inhibition of the enzyme activity (IC50) is determined.
Whether the nucleic acids shown by SEQ ID NO: 4-20, 22-34, and 38-48 inhibit the enzyme activity of chymase was determined as described below. The chymase substrate used was Suc-Ala-Ala-Pro-Phe-MCA (manufactured by Peptide Institute, Inc.), which contains the 4-amino-acid peptide Ala-Ala-Pro-Phe, a standard substrate for chymotrypsin-like proteases. Here, Suc is a protecting succinyl group, and MCA is a 4-methylcoumaryl-7-amide group; upon cleavage of the C-terminal side of phenylalanine, AMC (7-amino-4-methylcoumarine) is released. By detecting the fluorescence of this AMC, the enzyme activity of chymase can be determined. The assay was performed using a 96-well plate (F16 Black Maxisorp Fluoronunc, manufactured by Nunc), with a reaction mixture volume of 100 μL, in solution C as a buffer solution. First, each nucleic acid was serially diluted to 0.0027-2 μM concentrations in solution C to obtain 50 μL solutions. After 10 μL of the 1 mM substrate prepared in solution C was added thereto, the plate was set to the microplate reader SpectraMax190 (manufactured by Molecular Devices Corporation), and incubated at 37° C. for 5 minutes. Separately, 0.05 μg (or 0.005 μg) of chymase (recombinant, manufactured by SIGMA) was diluted in solution C to obtain a 40 μL chymase solution, and incubated at 37° C. for 5 minutes. The chymase solution was added to the mixture of the nucleic acid and substrate to initiate an enzyme reaction. The final chymase concentration in the reaction mixture was 16.7 nM (or 1.67 nM), the final substrate concentration being 100 μM. The plate containing the reaction mixture was set to the microplate reader SpectraMax190 (manufactured by Molecular Devices Corporation), and examined for time-dependent changes in the fluorescence intensity at 37° C. for 5 minutes (or 30 minutes) (excitation wavelength 380 nm, detection wavelength 460 nm). […]

B1: 30 (nucleic acid)
chain: rGrGrGrAfCrGrGfUrArGrGrArAfUfUfCrGfUfCfCfCfUfCfUfUrGfUfCfUrAfUfUfUfUrGfCrArGrAfUrArGrAfCfUfUrArArArGfCrArArAfCrAfUrArGrArArGrArGfCrGrGfCfCrGfC
- Binding activity as determined using Biacore (chymase): ++
- IC50 [1]: 0.147 ± 0.044 µM

B2: 28 (nucleic acid)
chain: rGrGrGrAfCrGrGfUrArGrGrArAfUfUfCrArAfUfUfUfCfUfUfUfCfUrAfUfUfCfUfCrAfCfCfUrGrArGfUrAfUrAfUfCrArGrGfCrAfCrArGfUrAfCrAfUrArGrArArGrArGfCrGrGfCfCrGfC
modifications: aptamer
- Binding activity as determined using Biacore (chymase): +
- IC50 [1]: 0.045 ± 0.004 µM

B3: 16 (nucleic acid)
chain: rGrGrGrAfCrGrGfUrArGrGrArAfUfUfCfCfCrAfUrGrAfCfUrGrArArArArAfCrGfUfCrArGfUrArArArAfUfCfCrGrArArArAfUfCrAfUrAfUfCrAfUrArGrArArGrArGfCrGrGfCfCrGfC
modifications: aptamer
- Binding activity as determined using Biacore (chymase): ++
- IC50 [1]: > 0.5 µM

B4: 26 (nucleic acid)
chain: rGrGrGrAfCrGrGfUrArGrGrArAfUfUfCrGfUfCrGrAfUfUfCfUrAfCrArGrAfUrArGrArGrAfUrArArArGfUrArGrArAfUfUfUrArAfCrArArArAfCrAfUrArGrArArGrArGfCrGrGfCfCrGfC
modifications: aptamer
- Binding activity as determined using Biacore (chymase): ++
- IC50 [1]: 0.106 ± 0.004 µM

B5: 18 (nucleic acid)
chain: rGrGrGrAfCrGrGfUrArGrGrArAfUfUfCrGrArAfCrGrAfCrArArAfUfUrAfUrArGrArAfCfUfUfCrGfUfUfUrGrAfCrAfUfUfCfCrAfCrAfCfCrAfCrAfUrArGrArArGrArGfCrGrGfCfCrGfC
modifications: aptamer
- Binding activity as determined using Biacore (chymase): ++
- IC50 [1]: 0.058 ± 0.021 µM

B6: 22 (nucleic acid)
chain: rGrGrGrAfCrGrGfUrArGrGrArAfUfUfCfCfCrGrAfCrAfCrArArArAfUrGfUrGfUrGrAfUfUrArAfUfUfCfCrGrArAfCrArAfCrArArArGfUrArAfCrAfUrArGrArArGrArGfCrGrGfCfCrGfC
modifications: aptamer
- Binding activity as determined using Biacore (chymase): +
- IC50 [1]: 0.105 ± 0.009 µM

B7: 31 (nucleic acid)
chain: rGrGrGrAfCrGrGfUrArGrGrArAfUfUfCrGfUfCfCfCfUfCrAfUrGfUfCfUrAfUfUfUfUrGfCrArGrAfUrArGrAfCfUfUrArArArGfCrArArAfCrAfUrArGrArArGrArGfCrGrGfCfCrGfC
- Binding activity as determined using Biacore (chymase): +
- IC50 [1]: 0.155 ± 0.039 µM

B8: 27 (nucleic acid)
chain: rGrGrGrAfCrGrGfUrArGrGrArAfUfUfCfCrGfUfCrAfUfCrGrGfUfUrGfCrArArAfUfUrGrArArArAfUrAfCrArArArAfCrArArGrGrAfCrArAfCfCrAfUrArGrArArGrArGfCrGrGfCfCrGfC
modifications: aptamer
- Binding activity as determined using Biacore (chymase): ++
- IC50 [1]: > 0.5 µM

B9: 17 (nucleic acid)
chain: rGrGrGrAfCrGrGfUrArGrGrArAfUfUfCfCrGfUfUfCrGfCrArGrArArAfCrGrArAfCfUfUfUfUrArArArArArAfUrGfUrAfCrGfUrGrGrGrArGfCrAfCrAfUrArGrArArGrArGfCrGrGfCfCrGfC
- Binding activity as determined using Biacore (chymase): ++
- IC50 [1]: 0.092 ± 0.042 µM

B10: 20 (nucleic acid)
chain: rGrGrGrAfCrGrGfUrArGrGrArAfUfUfCrArArArAfUfCrArGfCfUrGrAfUfUfUrGfUrArAfUfUfUfUfUfUfUrAfCrAfCrArGrGfCrArArArAfCrAfCrAfUrArGrArArGrArGfCrGrGfCfCrGfC
modifications: aptamer
- Binding activity as determined using Biacore (chymase): +
- IC50 [1]: 0.282 ± 0.013 µM

B11: 23 (nucleic acid)
chain: rGrGrGrAfCrGrGfUrArGrGrArAfUfUfCrAfUrAfUrGfUrAfCfUfCfCrGfUfCfCfUrGrAfCrArArArAfUrGfUfCrArAfUrGrAfCrArArAfCrGfUfUfCrAfUrArGrArArGrArGfCrGrGfCfCrGfC
modifications: aptamer
- Binding activity as determined using Biacore (chymase): ++
- IC50 [1]: 0.238 ± 0.06 µM

B12: 19 (nucleic acid)
chain: rGrGrGrAfCrGrGfUrArGrGrArAfUfUfCfCfCrAfCfUrGfCrArAfUfUfCrArGfCrArGrArArArArArAfUfUfCfCrGrArArArArAfCrAfCrAfCrAfCfCrAfUrArGrArArGrArGfCrGrGfCfCrGfC
modifications: aptamer
- Binding activity as determined using Biacore (chymase): ++
- IC50 [1]: 0.163 ± 0.001 µM

B13: 24 (nucleic acid)
chain: rGrGrGrAfCrGrGfUrArGrGrArAfUfUfCfCfCfUfUfCrAfUrArGfUrArGrArAfUrGfUfUrGrGfUfUfUfCfUrAfCrArArArArGfCrGrAfCrArArGfCrAfUrArGrArArGrArGfCrGrGfCfCrGfC
modifications: aptamer
- Binding activity as determined using Biacore (chymase): ++
- IC50 [1]: 0.092 ± 0.003 µM

B14: 29 (nucleic acid)
chain: rGrGrGrAfCrGrGfUrArGrGrArAfUfUfCrAfCrGrAfCfCrGfCfCfCrArArArArArAfUrGrGfUrGrAfCrAfUfUfUfUrArGrArArAfCrAfCfCrGrArAfCrAfUrArGrArArGrArGfCrGrGfCfCrGfC
modifications: aptamer
- Binding activity as determined using Biacore (chymase): ++
- IC50 [1]: > 0.5 µM

B15: 25 (nucleic acid)
chain: rGrGrGrAfCrGrGfUrArGrGrArAfUfUfCrArGfCfUrGrAfCfUfCfCrArAfUrGfCrAfCrAfCrGfUrArGrAfUrArGrArGfUfUrArArArAfCrGfUfUrGfCrAfUrArGrArArGrArGfCrGrGfCfCrGfC
modifications: aptamer
- Binding activity as determined using Biacore (chymase): ++
- IC50 [1]: 0.079 ± 0.028 µM
